This passage reports Kd results from paper PMC11983130.

What is called Kd is the free concentration of one partner at which half of the binding sites on the other are occupied at equilibrium, for simple one-to-one binding. Higher therefore signals weaker binding.

Data set [1] has as its target T1, SRSF1 RRM1+2 (ASF/SF2) (UniProt Q07955 1-196). As to the kind of experiment: competition.
The target in data set [2] is T1, SRSF1 RRM1+2 (ASF/SF2). Briefly: fluorescence anisotropy. For orientation: Polarisation of emitted light reports the rotation of a fluorescent probe.
Data set [3] addresses T1, SRSF1 RRM1+2 (ASF/SF2). As to the kind of experiment: competition. This is another data set of the same source.

T1 sequence (Q07955 1-196): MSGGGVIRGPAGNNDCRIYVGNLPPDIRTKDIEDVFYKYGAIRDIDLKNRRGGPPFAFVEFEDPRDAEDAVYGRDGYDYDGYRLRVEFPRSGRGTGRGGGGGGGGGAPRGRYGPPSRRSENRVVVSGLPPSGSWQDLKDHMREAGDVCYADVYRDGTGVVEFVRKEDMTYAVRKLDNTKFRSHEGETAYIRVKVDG

As to GGGGCCGGGGCCGGGGCCGGGGCC (ssRNA) [(G4C2)4 unlabeled, folded without K+], the Kd in data set [1] is under 21 nM.

In data set [2], AAAUCAGAGGAAAA (ssRNA) [SRSF1 canonical motif RNA] came in with a Kd of 21 ± 3 nM.

For AAAAUUAAAAUUAAAAUUAAAAUU (ssRNA) [(A4U2)4 unlabeled], the Kd in data set [3] is about 200 nM.
